Where a chain is given by its changes, count along the chain named.
B1: Flag-Rad23 (yeast Rad23 with an amino-terminal Flag epitope) (other, yeast (Saccharomyces cerevisiae), UniProt P32628 1-398, looked up, not shown: small tags and cut ends)
chain: MVSLTFKNFKKEKVPLDLEPSNTILETKTKLAQSISCEESQIKLIYSGKVLQDSKTVSECGLKDGDQVVFMVSQKKSTKTKVTEPPIAPESATTPGRENSTEASPSTDASAAPAATAPEGSQPQEEQTATTERTESASTPGFVVGTERNETIERIMEMGYQREEVERALRAAFNNPDRAVEYLLMGIPENLRQPEPQQQTAAAAEQPSTAATTAEQPAEDDLFAQAAQGGNASSGALGTTGGATDAAQGGPPGSIGLTVEDLLSLRQVVSGNPEALAPLLENISARYPQLREHIMANPEVFVSMLLEAVGDNMQDVMEGADDMVEGEDIEVTGEAAAAGLGQGEGEGSFQVDYTPEDDQAISRLCELGFERDLVIQVYFACDKNEEAAANILFSDHAD
B2: Flag-rad23^uba1uba2 (yeast Rad23 with mutations in both UBA domains, amino-terminal Flag epitope) (other, yeast (Saccharomyces cerevisiae), UniProt P32628 1-398, looked up, not shown: small tags and cut ends)
chain: B1 chain with L183A, L392A

Target: Ub-Pro-βgal (proteolytic test substrate, ubiquitinated in yeast cells) (UniProt P00722 1-1024 = β-galactosidase, ubiquitinated in the cells (multi-Ub chains; sites not stated))
Assay: cell-based or functional assay

Chain of Ub-Pro-βgal (proteolytic test substrate, ubiquitinated in yeast cells) (P00722 whole entry): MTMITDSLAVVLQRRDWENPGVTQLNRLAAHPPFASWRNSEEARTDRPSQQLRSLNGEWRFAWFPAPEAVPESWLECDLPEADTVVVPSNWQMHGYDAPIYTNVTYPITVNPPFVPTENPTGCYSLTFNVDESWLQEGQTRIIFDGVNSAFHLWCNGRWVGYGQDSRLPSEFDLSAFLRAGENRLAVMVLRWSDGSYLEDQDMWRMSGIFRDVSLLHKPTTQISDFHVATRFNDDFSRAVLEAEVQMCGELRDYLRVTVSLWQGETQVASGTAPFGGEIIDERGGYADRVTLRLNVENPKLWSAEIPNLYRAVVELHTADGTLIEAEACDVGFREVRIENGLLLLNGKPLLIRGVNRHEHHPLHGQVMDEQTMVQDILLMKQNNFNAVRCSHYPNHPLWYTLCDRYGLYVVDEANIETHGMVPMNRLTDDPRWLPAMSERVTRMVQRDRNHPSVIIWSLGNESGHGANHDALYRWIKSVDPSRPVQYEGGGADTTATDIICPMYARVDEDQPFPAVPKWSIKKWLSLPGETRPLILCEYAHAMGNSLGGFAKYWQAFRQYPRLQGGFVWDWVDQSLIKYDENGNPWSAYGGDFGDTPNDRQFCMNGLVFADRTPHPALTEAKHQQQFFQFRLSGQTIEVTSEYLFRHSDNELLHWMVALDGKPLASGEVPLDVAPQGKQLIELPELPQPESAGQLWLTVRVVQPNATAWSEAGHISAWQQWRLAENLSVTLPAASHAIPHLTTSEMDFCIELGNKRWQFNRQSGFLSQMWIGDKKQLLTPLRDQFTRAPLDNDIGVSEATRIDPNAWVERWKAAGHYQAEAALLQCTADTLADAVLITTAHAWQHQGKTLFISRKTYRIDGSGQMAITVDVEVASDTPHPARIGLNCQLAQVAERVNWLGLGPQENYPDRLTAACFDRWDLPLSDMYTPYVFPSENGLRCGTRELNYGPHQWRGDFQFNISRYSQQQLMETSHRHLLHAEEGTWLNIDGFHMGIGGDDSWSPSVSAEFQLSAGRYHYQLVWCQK

| Binder | t1/2 of Ub-Pro-βgal by pulse-chase on overexpression of Flag-Rad23 in yeast | t1/2 of Ub-Pro-βgal by pulse-chase on expression of Flag-rad23^uba1uba2 in yeast |
| --- | --- | --- |
| B1 | > 100 min | – |
| B2 | – | ~10 min |

Source: patent publication US20050287608A1 (UNIVERSITY OF MEDICINE AND DENTISTRY, published 2005)
